Data on four molecules can be found in paper PMC10570127 (The Journal of Biological Chemistry, 2023).

Data set [1] addresses T1, Sp_0475 (Streptococcus pneumoniae, UniProt A0A0H2UNN2).
T1 sequence (A0A0H2UNN2 1-646): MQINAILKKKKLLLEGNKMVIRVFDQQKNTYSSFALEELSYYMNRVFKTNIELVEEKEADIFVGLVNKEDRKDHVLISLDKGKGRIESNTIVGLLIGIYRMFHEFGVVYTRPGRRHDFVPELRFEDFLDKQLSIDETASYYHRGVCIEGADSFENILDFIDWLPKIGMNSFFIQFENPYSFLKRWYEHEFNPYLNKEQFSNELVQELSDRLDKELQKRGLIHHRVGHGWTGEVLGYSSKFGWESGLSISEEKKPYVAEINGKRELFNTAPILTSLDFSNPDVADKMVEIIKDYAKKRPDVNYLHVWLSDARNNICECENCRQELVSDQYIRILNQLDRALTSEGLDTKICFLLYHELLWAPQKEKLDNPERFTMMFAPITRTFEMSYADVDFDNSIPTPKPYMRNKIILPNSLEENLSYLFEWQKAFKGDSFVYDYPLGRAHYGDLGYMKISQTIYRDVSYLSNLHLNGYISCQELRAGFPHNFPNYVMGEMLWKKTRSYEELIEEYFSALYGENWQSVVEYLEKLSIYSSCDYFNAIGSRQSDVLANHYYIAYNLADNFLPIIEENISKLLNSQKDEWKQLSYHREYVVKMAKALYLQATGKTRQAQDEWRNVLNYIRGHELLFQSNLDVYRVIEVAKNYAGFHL
In kind it is biochemical.

For data set [2], the system named is CC(=O)N[C@H]1[C@H](Oc2ccc([N+](=O)[O-])cc2)O[C@H](COS(=O)(=O)O)[C@@H](O)[C@@H]1O. Description: Michaelis-Menten kinetics of hydrolysis by purified mutant. It counts as biochemical, Streptococcus pneumoniae. The following applies: active site; pH 7.0.
Data set [3] deals with CC(=O)N[C@H]1[C@H](Oc2ccc3c(C)cc(=O)oc3c2)O[C@H](COS(=O)(=O)O)[C@@H](O)[C@@H]1O. The description is as above. In kind it is biochemical, Streptococcus pneumoniae. The following applies: active site; pH 7.0.
Substrate in data set [4]: CC(=O)N[C@H]1[C@H](Oc2ccc3c(C)cc(=O)oc3c2)O[C@H](COS(=O)(=O)O)[C@@H](O)[C@@H]1O
As to the kind of experiment: purified protein. The settings on record: active site; pH 7.0.

Substrate in data set [5]: CC(=O)N[C@H]1[C@H](Oc2ccc([N+](=O)[O-])cc2)O[C@H](COS(=O)(=O)O)[C@@H](O)[C@@H]1O
As to the kind of experiment: purified protein. The following applies: active site; R633 interacts with the sulfate; pH 7.0.

Regarding `CC1=N[C@@H]2[C@@H](O)[C@H](O)[C@@H](CO)O[C@@H]2S1` [GlcNAc-thiazoline], affinity in data set [1] was put at a Ki of 6.6 ± 0.2 mM.

Take “Sp_0475 (Streptococcus pneumoniae TIGR4; D309A)”: in data set [2], the Km (usually the concentration of substrate that gives half-maximal velocity) was found to be 4.0 ± 0.1 µM. Moreover, in data set [3], the Km amounted to 1.5 ± 0.1 µM; the kcat (in general, the number of substrate molecules converted per active site and unit of time at saturation) turned out to be 0.007 ± 0.0001 s⁻¹; the kcat/Km (usually the turnover number divided by the Michaelis constant) is 4000 ± 1000 M⁻¹ s⁻¹.

Turning to “Sp_0475 (Streptococcus pneumoniae TIGR4; Y436F)”, in data set [2], the Km was 57 ± 4 µM, the kcat came to 0.15 ± 0.002 s⁻¹ and the kcat/Km was 3000 ± 500 M⁻¹ s⁻¹.

B1: Sp_0475 (Streptococcus pneumoniae TIGR4) (protein)
chain: T1 sequence (A0A0H2UNN2 1-646)
For the molecule B1, in data set [4], the Km amounted to 264 ± 7 µM, the kcat came to 55 ± 0.4 s⁻¹ and the kcat/Km came to 210000 ± 60000 M⁻¹ s⁻¹. Also, in data set [5], the Km came to 250 ± 4 µM, the kcat turned out to be 65 ± 0.3 s⁻¹ and the kcat/Km turned out to be 260000 ± 80000 M⁻¹ s⁻¹.
